Measurements as given in US20210380678A1 (SURROZEN OPERATING, published 2021).
Residue numbers refer to the chain shown, from its start.

T1: human RNF43 extracellular domain (hRNF43 ECD) (human, UniProt Q68DV7 44-197, biotinylated (His-Avi tag))
T1 construct: Expressed with a His-Avi tag at the N-terminus and biotinylated; also called human RNF3 (Q44-D198)
T1 sequence: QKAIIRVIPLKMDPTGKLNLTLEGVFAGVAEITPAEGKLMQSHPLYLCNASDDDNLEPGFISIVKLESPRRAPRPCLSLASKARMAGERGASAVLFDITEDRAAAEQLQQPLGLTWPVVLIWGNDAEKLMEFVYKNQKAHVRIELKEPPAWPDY

T2: human ZNRF3 extracellular domain (hZNRF3 ECD) (human, UniProt Q9ULT6 56-219, biotinylated (His-Avi tag))
T2 construct: Expressed with a His-Avi tag at the N-terminus and biotinylated; also called ZRNF3
T2 sequence: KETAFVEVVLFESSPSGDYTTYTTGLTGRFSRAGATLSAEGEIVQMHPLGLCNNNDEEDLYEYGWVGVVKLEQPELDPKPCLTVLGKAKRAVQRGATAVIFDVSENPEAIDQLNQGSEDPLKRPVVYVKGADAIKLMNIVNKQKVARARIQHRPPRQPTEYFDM

B1: 024S-A02 (antibody, V domains shown)
VH: EVQLVQSGAEVKKPGASVKVSCKASGYTFTSYAMHWVRQAPGQRLEWMGWINAGNGNTKYSQTFQGRVTITRDTSASTAYMELSSLRSEDTAVYYCARDLMVRGGPPFDYWGQGTLVTVSS
VL: not shown
B2: 020S-E06 (antibody, V domains shown)
VH: QVQLVQSGAEVKKPGASVKVSCKASGYTFTGYYMHWVRQAPGQGLEWMGIINPSGGSTSYAQKFQGRVTMTRDTSTSTVYMELSSLRSEDTAVYYCARGRQGVWDYWGRGTLVTVSS
VL: DIQMTQSPSSLSASVGDRVTITCRSSQSIRTYLNWYQQKPGKAPKLLIYAASTLQSGVPSRFSGSGSGTDFTLTISSLQPEDFATYYCQQANSFPITFGGGTKVEIK
B3: 020S-F06 (antibody, V domains shown)
VH: QVQLVQSGAEVKKPGASVKVSCKASGYTFTSYYLHWVRQAPGQGLEWMGWMNPNSGNTGYAQNFQGRVTMTRDTSTSTVYMELSSLRSEDTAVYYCARGDFWSGYYPYYYYYYGMDVWGQGTTVTVSS
VL: B2 VL with S25V, S28G, R30S, T31S, A91S, N92Y, S93G, F94A, I96L, G100Q
B4: 028S-G01 (antibody, V domains shown)
VH: QVQLVQSGAEVKKPGASVKVSCKASGYTFTNYYMHWVRQAPGQGLEWMGWINPHSGGTNYAQKFQGRVTMTRDTSTSTVYMELSSLRSEDTAVYYCAREDYNWNDGWFDPWGQGTLVTVSS
VL: DIQMTQSPSSLSASVGDRVTITCRASENIHKYLNWYQQKPGKAPKLLIYAASSLQSGVPSRFSGSGSGTDFTLTISSLQPEDFATYYCQQGYSTPYTFGQGTKLEIK
B5: 028S-B01 (antibody, V domains shown)
VH: QVQLVQSGAEVKKPGASVKVSCKASGYTFTAYYMHWVRQAPGQGLEWMGIINPNGGRTTYAQKFQGRVTMTRDTSTSTVYMELSSLRSEDTAVYYCARSFGVAGTLDYWGQGTLVTVSS
VL: DIVMTQSPLSLPVTPGEPASISCRSSQSLLHSNGYNYLDWYLQKPGQSPQLLIYDASNLETGVPDRFSGSGSGTDFTLKISRVEAEDVGVYYCMQTLHTPYTFGQGTKLEIK
B6: 028S-A09 (antibody, V domains shown)
VH: QVQLVQSGAEVKKPGASVKVSCKASGYRFTSYYLHWVRQAPGQGLEWMGWMNPKSGGTNYAQKFQGRVTMTRDTSTSTVYMELSSLRSEDTAVYYCARGGRSYGYWYFDLWGRGTLVTVSS
VL: EIVMTQSPATLSVSPGERATLSCRASQSVDSSYLAWYQQKPGQAPRLLIYAASARAAGIPARFSGSGSGTEFTLTISSLQSEDFAVYYCQQYYRSPPTFGQGTRLEIK
B7: 028S-E10 (antibody, V domains shown)
VH: QVQLVQSGAEVKKPGASVKVSCKASGYTFTSYYMHWVRQAPGQGLEWMGWINPNTGGTKSAQKFQGRVTMTRDTSTSTVYMELSSLRSEDTAVYYCARVLRGSLGFDYWGQGTLVTVSS
VL: DIQMTQSPSSLSASVGDRVTITCRASQDISRYLAWYQQKPGKAPKLLIYAASTVESGVPSRFSGSGSGTDFTLTISSLQPEDFATYYCQQSYRSPYTFGQGTKLEIK
B8: 028S-D02 (antibody, V domains shown)
VH: QVQLQQSGPGLVKPSQTLSLTCAISGDSVSSNSAAWYWIRQSPSRGLEWLGRTYYRSKWYHDYAVSVKSRITINADTSKNQFSLQLNSVTPEDTAVYYCARVVRAVDAFDIWGQGTMVTVSS
VL: ETTLTQSPGTLSLSPGERATLSCRASQSVNSRYLAWYQQKPGQAPRLLIYGASSRATGIPDRLTGSGSGTDFTLTISRLEPEDFAVYYCQQYGSSRLTFGGGTKVEIK
B9: 028S-E08 (antibody, V domains shown)
VH: EVQLLESGGGLVQPGGSLRLSCAASGFSFSNYAMSWVRQAPGKGLEWVSAISGSGRTTYYADSVKGRFTISRDNSKNTLYLQMNSLRAEDTAVYYCARRTSSFSLWGQGTLVTVSS
VL: DIQMTQSPSSLSASVGDRVTITCRASQSINNWLAWYQQKPGKAPKLLIYKASSLESGVPSRFSGSGSGTDFTLTISSLQPEDFATYYCQQANTFPITFGQGTRLEIK
B10: 028S-B07 (antibody, V domains shown)
VH: QVQLVQSGAEVKKPGASVKVSCKASGYTFTEYYMHWVRQAPGQGLEWMGWMNPNSGHAGSAQKFQGRVTMTRDTSTSTVYMELSSLRSEDTAVYYCARGRRSGLSPPAYWGQGTLVTVSS
VL: EIVMTQSPATLSVSPGERATLSCRASQSVSASLAWYQQKPGQAPRLLIYGASTRATGIPARFSGSGSGTEFTLTISSLQSEDFAVYYCHQYFSPPMTFGQGTRLEIK
B11: 028S-A04 (antibody, V domains shown)
VH: QVQLVQSGAEVKKPGASVKVSCKASGYTFTNYKMHWVRQAPGQGLEWMGKINPSSGSTSYAQKFQGRVTMTRDTSTSTVYMELSSLRSEDTAVYYCARSGAGMWYFDLWGRGTLVTVSS
VL: B4 VL with E27Q, N28D, H30Y, K31R, Y49F, Q55H, G91S, S93T, Y96I, L104V
B12: 028S-E04 (antibody, V domains shown)
VH: EVQLLESGGGLVQPGGSLRLSCAASGFTFNNFGMSWVRQAPGKGLEWVSGISASGRNTYYADSVKGRFTISRDNSKNTLYLQMNSLRAEDRAVYYCARETRHGSDYWGQGTLVTVSS
VL: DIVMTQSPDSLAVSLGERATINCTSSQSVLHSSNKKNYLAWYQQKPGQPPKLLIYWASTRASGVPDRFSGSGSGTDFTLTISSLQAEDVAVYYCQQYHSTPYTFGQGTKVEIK
B13: 028S-H04 (antibody, V domains shown)
VH: QVQLVQSGAEVKKPGASVKVSCKASGYTFIGYYMHWVRQAPGQGLEWLGWVNPKNGHTGYAQKFQGRVTMTRDTSTSTVYMELSSLRSEDTAVYYCAKDLEHTGYSSGWAGFDYWGQGTLVTVSS
VL: not shown
B14: 028S-C03 (antibody, V domains shown)
VH: QVQLVQSGAEVKKPGASVKVSCKASGYTFSRYFMHWVRQAPGQGLEWMGWINPNSGGTRYAQNLQGRVTMTRDTSTSTVYMELSSLRSEDTAVYYCARDQKGKSSSWFRFDPWGQGTLVTVSS
VL: not shown
B15: 028S-D04 (antibody, V domains shown)
VH: QVQLVQSGAEVKKPGASVKVSCKASGGTFSSYAISWVRQAPGQGLEWMGRISPNRGGTKYAQKFQGRVTMTRDTSTSTVYMELSSLRSEDTAVYYCARDSWLRGAWGYWGQGTLVTVSS
VL: B7 VL with D28S, Y32W, V54L, E55Q, Y92F, R93S, S94T, L104V
B16: 028S-G10 (antibody, V domains shown)
VH: QVQLVQSGAEVKKPGASVKVSCKASGYTFTSYGVSWVRQAPGQGLEWMGIINPRGGSTSYAQNFQGRVTMTRDTSTSTVYMELSSLRSEDTAVYYCARYSSSWSWPFDYWGQGTLVTVSS
VL: DIQMTQSPSSLSASVGDRVTITCRASQGISNNLNWYQQKPGKAPKLLIYAASTLQSGVPSRFSGSGSGTDFTLTISSLQPEDFATYYCQQSYSTPTFGQGTKVEIK
B17: 028S-G06 (antibody, V domains shown)
VH: EVQLLESGGGLVQPGGSLRLSCAASGFAFSNFAMIWVRQAPGKGLEWVSAISGSGGSTYYADSVKGRFTISRDNSKNTLYLQMNSLRAEDTAVYYCARLRANYGMDVWGQGTTVTVSS
VL: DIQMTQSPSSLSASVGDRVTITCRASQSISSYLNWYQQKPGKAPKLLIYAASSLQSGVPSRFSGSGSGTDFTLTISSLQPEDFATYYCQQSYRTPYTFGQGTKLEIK
B18: 028S-B06 (antibody, V domains shown)
VH: QVQLVQSGAEVKKPGASVKVSCKASGYRFTNYYMHWVRQAPGQGLEWMGWISPNSGATNYAQNFQGRVTMTRDTSTSTVYMELSSLRSEDTAVYYCARGGRTTVTTMAYWGQGTLVTVSS
VL: B5 VL with D55G, N58S, E60Q, T61S, T96G, L97T, T99W, Y101R, L109V, E110D
B19: 028S-A11 (antibody, V domains shown)
VH: QVQLVQSGAEVKKPGASVKVSCKASGGTFSGYYMHWVRQAPGQGLEWMGWINPNRGGTSYAQNFQGRVTMTRDTSTSTVYMELSSLRSEDTAVYYCARGMYSSSWLRYWGQGTLVTVSS
VL: B4 VL with E27Q, N28G, H30S, K31N, N34A, Y92S, T94F, Y96L, L104V, E105D

What follows are binders tested against T1, human RNF43 extracellular domain … (assay: ELISA (binding specificity)).

Row | binding result | Binder
1 | binds | B1
2 | binds | B2
3 | binds | B3
4 | binds | B4
5 | binds | B5

Each binder was assayed against T2, human ZNRF3 extracellular domain … (assay: BLI (Octet) KD grade: * = KD >= 1 uM).
Procedure: (§1) Binding characterization of recombinant Fabs or IgG' s was carried out using Bio-Layer Interferometry (BLI) using the Octet Red 96 platform (PALL ForteBio, Fremont, Calif.) with streptavidin (SA) coated biosensors (PALL ForteBio,). […] Following immobilization, sensors were dipped into samples containing test molecules at seven concentrations. Values for KD were determined by fitting the resulting data with a 1:1 binding model.

Row | KD [nM] | Binder
6 | ≥ 1000 | B6
7 | ≥ 1000 | B7
8 | ≥ 1000 | B8
9 | ≥ 1000 | B9

Each binder was assayed against T2, human ZNRF3 extracellular domain … (assay: BLI (Octet) KD grade: *** = 100 nM > KD).
Procedure: as §1

Row | KD [nM] | Binder
10 | < 100 | B10
11 | < 100 | B11
12 | < 100 | B12
13 | < 100 | B13
14 | < 100 | B14

These binders were tested against T2, human ZNRF3 extracellular domain … (assay: BLI (Octet) KD grade: ** = 1 uM > KD >= 100 nM).
Procedure: as §1

Row | KD [nM] | Binder
15 | 100 to 1000 | B15
16 | 100 to 1000 | B16
17 | 100 to 1000 | B17
18 | 100 to 1000 | B18
19 | 100 to 1000 | B19

These binders were tested against T2, human ZNRF3 extracellular domain … (assay: BLI (Octet), biotinylated antigen on SA sensor, 1:1 fit).
Procedure: as §1

Row | Kd [nM] | Binder
20 | 65.4 | B10
21 | 874 | B15
22 | 684 | B16
23 | 109 | B17
24 | 12500 | B6
25 | 36.2 | B11
26 | 4160 | B7
27 | 95.3 | B12
28 | 48 | B13
29 | 764 | B18
30 | 203 | B19
31 | 3320 | B8
32 | 25.1 | B14
33 | 3900 | B9
